Test results from a protein production outcome set (Wang et al. 2014).

Experiment: label from the status in PepcDB records

Sequence | protein production
MNNHQTPQATSPLAAWLCYLEHLHSQPIELGLERVKQVAERLDLLKPAPKIFTVAGTNGKGTTCCTLEAILLAAGLRVGVYSSPHLLRYTERVRIQGQELSEAEHSHSFAQIEAGRGDISLTYFEFGTLSALQLFKQAKLDVVILEVGLGGRLDATNIVDSDVAAITSIALDHTDWLGYDRESIGREKAGVFRGGKPAVVGEPDMPQSIADVAAELGAQLYRRDVAWKFSQQEPFDQQEPVDQQINGWHWQCGERQLTGLPVPNVPLANAATALAVLHYSELPLSDEAIRQGLQAASLPGRFQVVSEQPLLILDVAHNPHAARYLVNRLAQVINPVNASKQGKVRAVVGMLSDKDIAGTLACLSERVDEWYCAPLEGPRGASAGQLAEHLVSARQFSDVETAWRQAMQDADTQDVVIVCGSFHTVAHVMAALHL | not failed
MAEKKKKNKKQLSSFSILFIILIVLGIVTVLLNGQPFTPREIDGKMVDHVVGAKLSDIIMAPFNGFKDAIEINIFILVLGGFLNIVTQTGALEAGIQSVVKKLKGNELKIIPILMILFSIGGSTYGMAEETIPFYGLLSATMVAAGFDTFVAVGTVLLGAGSGVIGSTVNPFSTGVAMDALRGIGIQPNTGIILIVGAILWAASTSYSIFIVMRYAKKVKADKGSTILSLQEQEDMEKTYGQAASKEMPFTNRHKKILMVFAFCFVIMIVSLIPWNDFGVTIFKGWTSVLTGNSFGDWYFGDLAMWFFLLGIIAALIGRFTEKETIEAFIDGAKDMLSVVLIIVVARGASVLMSKTYLDSFILDKAAGLLQGLSPVLFVIGAFVLYLGLSFLIPSTSGLAYVSIPVMGALAKNIGLSPEVMVMIFASGCGLINLITPTSGVVMGGLEISKVQYATWTKFMAKPMIVLGLINLIILIGAMLLFS | failed
MSAPSDTPTYLHGFSATEQARLLKQARLLETTLFNQIDYSGARRLLEVGSGVGAQTEILLRRFPELHVTGVDLSETQLDAARANLERLAWCRARYTLQQADASDLPFEARQFDAAFLCWVLEHVPSPARVLNEVRRVLLPGSPVYVTEVMNASFLLHPYSPSLWRYWMAFNDFQHDQGGDPFVGAKLGNLLLAGGFRDVHTQIKTLHLDNREPGRRKTMIGFWEEVLLSAADQLLQAGAVEAATVDGMRRELAQVHSDPDAVFFYSFVQARATVY | failed
MPHAVQGQPENAVHPPQGTAWPGLEPPEGFLMANPRLSRRHVRRMRSERPPPTTRPPDWRFPMKSTLNLLLTVSLALSGAGLAQTAPNVPTQAAPTTAAPANAAQLAAEARDLTNRARTTYPAGSASIDQPLWKQAADRAEAAVSAAPNNPDVLRLRAQIYTEVGFWKQAESSWRAYFAVAPVAAGQNEARAAGNVQYNLGYAAYTRGQSAQAAAYFKACLTLDPQSVPCATWAARTALESGDYALAQNLYTQALSLAPTDKTLNYFAQVARNASTYGPAATQAFSRAYASLDAGRRAEALAGFQEAARSAPNFPEAQREAGRLALEAGDTGAALSAYQALAALPGATDSDRYNLGLAQEGQQYGLRAVQTFRTAYGKYSAGDKAGAEAGFLQATTASANYGKAWAWLGRVRYEAKNYAGAAEAYGRAVALDPGDKTSAYFLKLAQQGK | failed
GLPAVDSEILEMPPEKADGVVEGIDVNGPKAQLMLRYPDGKREQITLPEQAKLLALVKHVQSKGYPNERFELLTNFPRRKLSHLDYDITLQEAGLCPQETVFVQERN | failed
MSAQKQEKTNVFLDPSKNEAYFKKRVGMGESFDLGVRKVFILGHEVQLYYVNGLCDTQYIIHLLRELVHLNDKEKESGEVEDIVENRLLNQQVSKAETLDEAVDQVLSGLVAIIVEDAGFAFIIDVRSYPGRTPEEPDTEKVVRGARDGLVENIIVNTALIRRRIRDERLRYKMLHIGERSKTDICLCYLEDVADPDLVEVLKKEIEDVKIDGLPMSDKSVEEFLVGQGYNPFPLVRFTERADVAASHILEGHVIVIVDTSPSVIITPTTLFHHVQHAEEYRQTPAVGTFLRWVRFFGILASTFLLPLWLLFVIHPSLLPDNLSFIGLNKDTHIPIIMQIFLADLGVEFLRMAAIHTPTALSTAMGLIAAVLIGDIAINVGLFSPEVILYVSLSAIGAYTTPSYELSLANKMVKLFMLILVALFKVEGFVIGLTILTIVMTSIRSLRTPYLWPLLPFNGKAFWHVLVRTSVPGGKVRPSIVHPRNRSRQP | failed
MTDRSEDADGEPAPEDAAGLDDDALDHEFSEGAGFDDPYAGFDLDPPELDVDPDTVDPVDSRVVADTLDERTLDNDAVDADELIDVGLSYMGINRNEQAVDTFERAAQYTDDDNREQEAWVNKGIAHGELEEWDAAVGAHREALFVADDGDFEAAAHTNLAYALWEFGEDEQAYEHAEEAVRVDKRLPQAWYNLGFIENERDRPEQALDALDNAIRLGFQQADVYEEKTRALEALGRDEEAAKVAEQADEIRSQQERELVDER | failed
MTLSRSSADDSTNNANRSYSAVAGTDNKRKRDEDSSDYVGVAESLEMLKKQEIDADHMAASAQQTLISWRSGENSRSLSSSGECSSSNRPESTRLQIFVRMMSGGKTIVIHAEKYDTVEKLHQRIEWKTKIPALEQRVIYKGKQLQRENSLTYYSIEQDASLQLVARMQSTEHPVAWQTIDDIMYTISRMYKGENLQSNINEKIVTFFAMIPVESDESIAKYLNIFSNSSVPAALVMLYASSLERNKSCAKSSVKLFLSNCVALPKNQKNYCLPIVLEFCKLLRKVCPDQKLYVTCRNTLGSMLETFDNPHGVYNDQYETFGVEIFPFFTELTGLLLNELAQNSGPSFCDFQKVSSFWQQLRKVIELKVAFPIPIVLPMQSTALEAEIRHLHRLFGSLLTTMDLCMCRVESSLADKEVGNSETMSSSWSQYLSILKIINSMSNIYQGAKGQLAVMLNKNKVSFSALVVKFAKRGDDHQWIFEYKEATNFEARRHLAMLLFPDVKEDFEEMHEMLIDRSNLLSESFEYIVGASPEALHGGLFMEFKNEEATGPGVLREWFYLVCQEIFNPKNTLFLRSADDFRRFSPNPASKVDPLHPDFFEFTGRVIALALMHKVQVGVLFDRVFFLQLAGLKISLEDIKDTDRIMYNSCKQILEMDPEFFDSNAGLGLTFVLETEELGKRDTIELCPDGKLKAVNSKNRKQYVDLLIERRFATPILEQVKQFSRGFTDMLSHSVPPRSFFKRLYLEDLDGMLRGGENPISIDDWKAHTEYNGFKETDRQIDWFWKILKKMTEEEQRSILFFWTSNKFVPVEGFRGLSSKLYIYRLYEANDRLPLSHTCFYRLCIPRYPTITLMEQRLRLIAQDHVSSSFGKW | failed
MGGITMTAVVSNRDKINFHEVADHYHSNKIIFGIKFLKNWALERLASCAPVPSWRAKLHKMRGVNIGENVYIGYDVIFDRIHPEMITVGDYAEIGDRCILSAHSRGSLTTRQAYPRSIAPIKIGRGVSVNPGCIITQGVEIGDNSIIGVGSVVSRNISPNSLALGYPAKVIKKLDGVGELQTLEHHHHHH | failed
MSDALINGLAGAGGGIIAQLLTYPLQTVNTRQQTERDLKREKRKLGTIEHMCQVVKQEGWERLYGGLAPSLAGTAASQGVYYYFYQVFRNRAEATALARKKKGLGDGSVGMFASLLVAAFAGSVNVLMTNPIWVIVTRMQTHRKMTKDQTAAPESPSSNAEALVAVEPRPYGTFNTIREVYDEAGITGFWKGVIPTLIMVSNPSMQFMLYETMLTKLKKKRALKGSNNVTALETFLLGAVAKLGATVTTYPLLVVKSRLQAKQVTTGDKRQQYKGTLDAILKMIRYEGLYGFYKGMSTKIVQSVLAAAVLFMIKEELVKGAKLLLSNATSS | failed
MKKSKHLKRPYLKRSHLKHSDKASSFKGLLKKEDNVISLENFKPKESEDLLENFSNKKDMQELLGLLNQFILQSYKVEKEFKDYKALYEWVIEILPQAIWVVNENGSFFYKNSLANQSHEVFNKAKLENFNTEIEHENKSYLVQQNSIQGKQIITATDISAQKRQERLASMGKISAHLAHEIRNPVGSISLLASVLLKHANEKTKPIVVELQKALWRVERIIKATLLFSKGIQANRTKQSLKTLESDLKEALNCYTYSKDIDFLFNFSDEEGFFDFDLMGIVLQNFLYNAIDAIEALEESEQGQVKIEAFIQNEFIVFTIIDNGKEVENKSALFEPFETTKLKGNGLGLALSLQVVKAHEGSIALLENQEKTFEIKILNAS | failed
MKIAIFGTTLHAGVMAALLAERGNDVFWCADHDYKGLEEQIVCQTYQEQDVNRLLVKQRQLGFLKDCRFSSIPLDIEAYLFCFSPTELQFALEVTQLLNIRPIIHPRLMINGSTFGLHGTEKLKQNLPKDHWVYFPDMIQEGNAINSVLTVKHVIVGVESDYTKTIMHEMLRPFFRFNHQYLFMPILDAEFTKLSISGMLATRISYMNDMALVAEKLGIDIANVKEGMAADTRIGSAYLSAGVGFGGENFSHDILTLSNVVSDTGARSRLLEQVWEINEQQKEVLFRKLWNYYHCDLKDKVVAIWGAAFKENTSNIHNAPIHSMLTALWAQGAIVKLHDPQALEEIQARYGKRNDLILCTEQYEATRGAHALCVMTVWKQYLSPDYKKLQQLMAHPFILDGRNVYDPVYIKQQGFAYEGIGRL | failed
MKLQLYVLRTVATRILGAALILMSVLQILDLLDVTSDILDRGLGMAGVGYYAALRLPRLFEQVAPIAVLAGGLFAFSQLARESAIVAMRASGISGYRIVGMAVPAAVAVMLLDALCGQVLAPRADPTLADWWRNTTPVAERKEPVPRTFRAGADLVIGANASADGRTITGVTIFRRDSKGILVEKVEAPAARYDGKAWTLEQPKTTRFAGDLSQASTAAATSWPTALRPQDVQGLFGDDSMPTAASARRALENGGSDRPESFYATHLQAAFASPFVSLVMLLLSAPVALANFRSGQGAVLLTGGLAAGLMFLVANGMLTALGESGALTPFLAVWAAPAIFGALAVRTFLALEG | failed
MTPRHQRPLARRKLLVALGGAVVAAPVAAAVAPHALAGIGPDGPAPAAAGALPLTIVNDTGSFGNADVHVYIVGNVDGRQVRVTPDGTVAPVALSDNGADGYTDYAIGLSGSGETKLSLPHLSGRIYVSLGEKLKFKVVADGAGNAALQYPAGWVESDPNYAVLHDCAEFTYNAAGMFCNTTMVDMFSVPLAIRLTGADDRTTGTVRPGGRAAVFEAVRKVEEFAPLVVDDTRVIAPGHGLDAGLFPKDYLAPYIDEVWSTYTGKDLRITTNAGTFTGRVRGDRLTFDGPAQVSFAKPSTRDVLFCDGNLAAPNDGTTGPVAAVLGAGFNRSTLVSSAEQPTTDPATFYGTALTNHYAKAVHAATEDGRAYGFAFDDVADFASYIQDTAPTGIRLTLGAFLEHHHHHH | failed
MLIIFASGFALRAGTVTVAGVYSEAHYQPLMYDMDSYYNLRLASNLLNEGELSEGGWDRYSYYPPGVPLDYPPLLPHLTVTLYLLFTWLLPGLTDTAFWLPAIIAPLAGVAVFAAARSLDCDDVSATTAGLLATAAPFYFMRTIPGFYDTDMFNLVLPLAILLTLHLSLRDGDWRMAVLSGALMGVFAAAWNGWQLIYSIMALSVILHSLLYRRREPLIFLITSTLLIVLMDPRAIPSIPVGLMKIPVARADPFPDPYANITELQRPGFDDVLMALGPGLLLAGLAGFRSLFRDWRDSMVLPVIILWTLTGAASLLWGIRFSELLTAPLLITSALFLADLGTASRVPPGFRRKLHVAVAIMVVLPSLIISTGQYSALHPRVDDGLLDAADYIRAKTPPDTVVISNWVHGHFFAFMARRPVNFDGRLAYIETAAKRGPGYPLDPRIPGVYREYWHDPGPNDHGPHLADEILSMLASSGDEAYLEVLNATGDPAGSAVILGDVLAVDGSSRAEYLQDRGLDPVASGRVASTLSRRSGYVLVTCDRLIDKGYWILYYGNWNFTGKTRKPVYSTGSIVQGWPLRTSDGLLWDGERISFNGLRVSELYLVDGGVRKVEGDPQGGLVAFVLYDRNRTVVLERGYEDSMFARLVLLGDGGGVFRAVMRSRDVTVWEPIRDWNT | failed
